Assay results from patent publication US20200299403A1.

Columns and labels:
[1] = molecular target: HER2 (HER2/c-erb-2 gene product) on SKBR3 cells (UniProt P04626); assay: FACS on SKBR3 cells, Alexa 647 Protein L detection, one site specific binding fit (column head prints 'SKBR3 Cell Binding IC50, nM')
[2] = molecular target: HER2 (HER2/c-erb-2 gene product) on SKBR3 cells (UniProt P04626); assay: FACS on SKBR3 cells, one site specific binding fit

Substance	Kd [1] [nM]	Kd [2] [nM]
trastuzumab scFv (VL_VH) with pN3F at position (-1), conjugated to DBCO-MMAF	14	
scFv-Fc (-1) pN3F DBCO-MMAF (Fc fusion)		6.8
